Measurements reported in patent US20250179210A1 (Merck KGaA, published 2025).
Like-named read-outs stand apart in the source and are kept apart here.

How the values were obtained:
[1] = target: T1, human CEACAM5 expressed on human cancer cell lines (MKN-45, NCI-H441, SK-CO-1, SNU-16, LS174T) (human, UniProt P06731 35-685); assay: binding to MKN-45 cells
T1 construct: Endogenous protein on cells; also called MKN45 cell line expressing human CEACAM5; CEACAM5-positive cell lines
T1 sequence: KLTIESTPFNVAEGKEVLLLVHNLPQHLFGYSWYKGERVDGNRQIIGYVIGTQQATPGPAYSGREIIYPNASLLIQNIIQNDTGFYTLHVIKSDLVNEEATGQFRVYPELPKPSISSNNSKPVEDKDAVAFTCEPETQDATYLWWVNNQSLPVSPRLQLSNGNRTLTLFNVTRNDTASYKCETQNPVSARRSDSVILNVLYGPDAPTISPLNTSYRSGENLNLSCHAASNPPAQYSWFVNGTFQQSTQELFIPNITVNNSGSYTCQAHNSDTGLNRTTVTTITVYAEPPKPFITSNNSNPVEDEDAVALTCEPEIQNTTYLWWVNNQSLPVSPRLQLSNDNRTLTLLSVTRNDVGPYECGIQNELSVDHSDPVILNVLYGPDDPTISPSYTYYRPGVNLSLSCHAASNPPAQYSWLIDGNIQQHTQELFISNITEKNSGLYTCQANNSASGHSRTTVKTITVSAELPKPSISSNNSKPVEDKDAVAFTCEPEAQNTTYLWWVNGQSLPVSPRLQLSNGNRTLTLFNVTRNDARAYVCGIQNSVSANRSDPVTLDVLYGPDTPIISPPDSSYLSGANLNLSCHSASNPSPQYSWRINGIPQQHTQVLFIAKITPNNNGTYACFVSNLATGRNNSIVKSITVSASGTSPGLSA

[2] = target: T1, human CEACAM5 expressed on human cancer …; assay: cell-based or functional assay
[3] = target: T1, human CEACAM5 expressed on human cancer …; assay: cell-based or functional assay; remark: listed apart in the source
[4] = target: T1, human CEACAM5 expressed on human cancer …; assay: cellular binding on MKN45 cells (FIG. 2)
[5] = target: T1, human CEACAM5 expressed on human cancer …; assay: flow cytometry on MKN-45 cells, antibody titrated
[6] = target: T1, human CEACAM5 expressed on human cancer …; assay: cell-based or functional assay; remark: listed apart in the source
[7] = target: T1, human CEACAM5 expressed on human cancer …; assay: cell-based or functional assay; remark: listed apart in the source

B1: Variant 1 (VH1.00/VL1.00) (antibody, V domains shown)
VH: EVQLQESGPGLVKPSQTLSLTCTVSDGSVSRGGYYLTWIRQHPGKGLEWIGYIYYSGSTYFNPSLRSRLTMSVDTSKNQFSLKLSSVTAADTAVYYCARGIAVAPFDYWGQGTLVTVSS
VL: ETTLTQSPATLSVSPGERATLSCRTSQSVRSNLAWYQQKPGQAPRLLIYAASTRATGIPARFSGSGSGTEFTLTIGSLQSEDFAVYFCQQYTNWPFTFGPGTKVEIKR
notes: also called optimized antibody Variant 1
binding result [1]: binds

B2: Variant 6 (VH1.02/VL1.00) (antibody, V domains shown)
VH: EVQLQESGPGLVKPSQTLSLTCTVSDGSVSRGGYYLTWIRQHPGKGLEWIGYIYYSGSTYFNPSLRSRVTMSVDTSKNQFSLKLSSVTAADTAVYYCARGIAVAPFDYWGQGTLVTVSS
VL: ETTLTQSPATLSVSPGERATLSCRTSQSVRSNLAWYQQKPGQAPRLLIYAASTRATGIPARFSGSGSGTEFTLTIGSLQSEDFAVYFCQQYTNWPFTFGPGTKVEIKR
notes: also called optimized antibody Variant 6
binding result [1]: binds

B3: ADC1 (mAb1-glucuronid-exatecan) (antibody, human IgG1, kappa)
heavy: EVQLQESGPGLVKPSQTLSLTCTVSDGSVSRGGYYLTWIRQHPGKGLEWIGYIYYSGSTYFNPSLRSRVTMSVDTSKNQFSLKLSSVTAADTAVYYCARGIAVAPFDYWGQGTLVTVSSASTKGPSVFPLAPSSKSTSGGTAALGCLVKDYFPEPVTVSWNSGALTSGVHTFPAVLQSSGLYSLSSVVTVPSSSLGTQTYICNVNHKPSNTKVDKRVEPKSCDKTHTCPPCPAPPVAGPSVFLFPPKPKDTLMISRTPEVTCVVVDVSHEDPEVKFNWYVDGVEVHNAKTKPREEQYNSTYRVVSVLTVLHQDWLNGKEYKCKVSNKALPSSIEKTISKAKGQPREPQVYTLPPSREEMTKNQVSLTCLVKGFYPSDIAVEWESNGQPENNYKTTPPVLDSDGSFFLYSKLTVDKSRWQQGNVFSCSVMHEALHNHYTQKSLSLSPG
light: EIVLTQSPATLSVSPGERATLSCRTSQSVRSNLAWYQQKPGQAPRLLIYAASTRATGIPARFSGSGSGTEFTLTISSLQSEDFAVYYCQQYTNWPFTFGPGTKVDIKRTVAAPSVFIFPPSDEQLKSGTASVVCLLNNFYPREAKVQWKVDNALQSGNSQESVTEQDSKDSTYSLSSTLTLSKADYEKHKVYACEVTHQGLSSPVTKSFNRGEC
modifications: drug-linker DL1 on the reduced interchain cysteine; drug-linker DL1 (maleimido-beta-glucuronide-exatecan) on sulfur of reduced interchain cysteines; DAR 7.9 for the whole antibody
fold higher potency than ADC SAR DM4 against SK-CO-1 cells (viability assay) [2]: 2.9 fold | IC50 [M], cell viability assay (Cell Titer-Glo, 6 days), LS174T cells [3]: 3.8e-10 M | IC50 [M], cell viability assay (Cell Titer-Glo, 6 days), MKN-45 cells [3]: 6.2e-10 M | IC50 [M], cell viability assay (Cell Titer-Glo, 6 days), SK-CO-1 cells [3]: 8.5e-11 M | IC50 [M], cell viability assay (Cell Titer-Glo, 6 days), SNU-16 cells [3]: 3.2e-10 M

B4: ADC2 (mAb1-AAN-exatecan) (antibody, human IgG1, kappa)
heavy: EVQLQESGPGLVKPSQTLSLTCTVSDGSVSRGGYYLTWIRQHPGKGLEWIGYIYYSGSTYFNPSLRSRVTMSVDTSKNQFSLKLSSVTAADTAVYYCARGIAVAPFDYWGQGTLVTVSSASTKGPSVFPLAPSSKSTSGGTAALGCLVKDYFPEPVTVSWNSGALTSGVHTFPAVLQSSGLYSLSSVVTVPSSSLGTQTYICNVNHKPSNTKVDKRVEPKSCDKTHTCPPCPAPPVAGPSVFLFPPKPKDTLMISRTPEVTCVVVDVSHEDPEVKFNWYVDGVEVHNAKTKPREEQYNSTYRVVSVLTVLHQDWLNGKEYKCKVSNKALPSSIEKTISKAKGQPREPQVYTLPPSREEMTKNQVSLTCLVKGFYPSDIAVEWESNGQPENNYKTTPPVLDSDGSFFLYSKLTVDKSRWQQGNVFSCSVMHEALHNHYTQKSLSLSPG
light: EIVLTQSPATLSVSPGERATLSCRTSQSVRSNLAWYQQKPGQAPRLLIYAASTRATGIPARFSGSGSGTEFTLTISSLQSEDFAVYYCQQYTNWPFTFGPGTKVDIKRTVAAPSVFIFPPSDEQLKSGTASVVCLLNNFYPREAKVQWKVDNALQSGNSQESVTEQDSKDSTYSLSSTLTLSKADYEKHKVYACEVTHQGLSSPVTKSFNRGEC
modifications: drug-linker DL2 on the reduced interchain cysteine; drug-linker DL2 (legumain-cleavable Ala-Ala-Asn linker, exatecan) on reduced interchain cysteines; DAR 7.6 for the whole antibody
fold higher potency than ADC SAR DM4 against SK-CO-1 cells (viability assay) [2]: 2.7 fold | IC50 [M], cell viability assay (Cell Titer-Glo, 6 days), LS174T cells [3]: 2.8e-10 M | IC50 [M], cell viability assay (Cell Titer-Glo, 6 days), MKN-45 cells [3]: 4.7e-10 M | IC50 [M], cell viability assay (Cell Titer-Glo, 6 days), SK-CO-1 cells [3]: 6.9e-11 M | IC50 [M], cell viability assay (Cell Titer-Glo, 6 days), SNU-16 cells [3]: 2.8e-10 M

B5: hmn-14 (hMN14, antibody of labetuzumab govitecan) (antibody, human IgG1, kappa, V domains shown)
VH: EVQLVESGGGVVQPGRSLRLSCSASGFDFTTYWMSWVRQAPGKGLEWIGEIHPDSSTINYAPSLKDRFTISRDNAKNTLFLQMDSLRPEDTGVYFCASLYFGFPWFAYWGQGTPVTVSS
VL: DIQLTQSPSSLSASVGDRVTITCKASQDVGTSVAWYQQKPGKAPKLLIYWTSTRHTGVPSRFSGSGSGTDFTFTISSLQPEDIATYYCQQYSLYRSFGQGTKVEIKR
EC50 [4]: 11.8 nM

B6: Rituximab (antibody, human IgG1, kappa, V domains shown)
VH: QVQLQQPGAELVKPGASVKMSCKASGYTFTSYNMHWVKQTPGRGLEWIGAIYPGNGDTSYNQKFKGKATLTADKSSSTAYMQLSSLTSEDSAVYYCARSTYYGGDWYFNVWGAGTTVTVSA
VL: QIVLSQSPAILSASPGEKVTMTCRASSSVSYIHWFQQKPGSSPKPWIYATSNLASGVPVRFSGSGSGTSYSLTISRVEAEDAATYYCQQWTSNPPTFGGGTKLEIKR
notes: also called mAb4-M; anti-CD20 control antibody
binding result [5]: no binding (tested: 2000 nM)

B7: ADC1-M (conjugate of mAb1-M with DL1) (antibody, human IgG1, kappa, L234A L235A)
heavy: EVQLQESGPGLVKPSQTLSLTCTVSDGSVSRGGYYLTWIRQHPGKGLEWIGYIYYSGSTYFNPSLRSRVTMSVDTSKNQFSLKLSSVTAADTAVYYCARGIAVAPFDYWGQGTLVTVSSASTKGPSVFPLAPSSKSTSGGTAALGCLVKDYFPEPVTVSWNSGALTSGVHTFPAVLQSSGLYSLSSVVTVPSSSLGTQTYICNVNHKPSNTKVDKRVEPKSCDKTHTCPPCPAPEAAGGPSVFLFPPKPKDTLYITREPEVTCVVVDVSHEDPEVKFNWYVDGVEVHNAKTKPREEQYNSTYRVVSVLTVLHQDWLNGKEYKCKVSNKALPAPIEKTISKAKGQPREPQVYTLPPSREEMTKNQVSLTCLVKGFYPSDIAVEWESNGQPENNYKTTPPVLDSDGSFFLYSKLTVDKSRWQQGNVFSCSVMHEALHNHYTQKSLSLSPG
light: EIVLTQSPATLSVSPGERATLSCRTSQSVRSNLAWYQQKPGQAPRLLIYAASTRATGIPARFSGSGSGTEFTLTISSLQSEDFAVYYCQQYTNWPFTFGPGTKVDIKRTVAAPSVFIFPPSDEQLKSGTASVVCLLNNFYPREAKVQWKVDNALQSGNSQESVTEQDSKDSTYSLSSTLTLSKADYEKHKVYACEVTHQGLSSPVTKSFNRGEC
modifications: DL1 by interchain cysteine conjugation; DL1 (maleimido-b-glucuronide-exatecan) by interchain cysteine conjugation; DAR 8.16
IC50 [M], cell viability assay (Cell Titer-Glo, 6 days), LS174T cells [6]: 6e-10 M | IC50 [M], cell viability assay (Cell Titer-Glo, 6 days), MKN-45 cells [6]: 5.2e-10 M | IC50 [M], cell viability assay (Cell Titer-Glo, 6 days), SK-CO-1 cells [6]: 7.6e-11 M | IC50 [M], cell viability assay (Cell Titer-Glo, 6 days), SNU-16 cells [6]: 3.6e-10 M | SPECIFICITY FACTOR (IC50 in CEACAM5-negative MDA-MB-231 divided by IC50 in MKN-45) [7]: 201 fold | SPECIFICITY FACTOR (IC50 in CEACAM5-negative MDA-MB-231 divided by IC50 in SK-CO-1) [7]: 874 fold | SPECIFICITY FACTOR (IC50 in CEACAM5-negative MDA-MB-231 divided by IC50 in SNU-16) [7]: 242 fold

B8: ADC2-M (conjugate of mAb2-M with DL1-M) (antibody, human IgG1, kappa, L234A L235A)
heavy: EVQLQESGPGLVKPSQTLSLTCTVSDGSVSRGGYYLTWIRQHPGKGLEWIGYIYYSGSTYFNPSLRSRVTMSVDTSKNQFSLKLSSVTAADTAVYYCARGIAVAPFDYWGQGTLVTVSSASTKGPSVFPLAPSSKSTSGGTAALGCLVKDYFPEPVTVSWNSGALTSGVHTFPAVLQSSGLYSLSSVVTVPSSSLGTQTYICNVNHKPSNTKVDKRVEPKSCDKTHTCPPCPAPEAAGGPSVFLFPPKPKDTLYITREPEVTCVVVDVSHEDPEVKFNWYVDGVEVHNAKTKPREEQYNSTYRVVSVLTVLHQDWLNGKEYKCKVSNKALPAPIEKTISKAKGQPREPQVYTLPPSREEMTKNQVSLTCLVKGFYPSDIAVEWESNGQPENNYKTTPPVLDSDGSFFLYSKLTVDKSRWQQGNVFSCSVMHEALHNHYTQKSLSLSPG
light: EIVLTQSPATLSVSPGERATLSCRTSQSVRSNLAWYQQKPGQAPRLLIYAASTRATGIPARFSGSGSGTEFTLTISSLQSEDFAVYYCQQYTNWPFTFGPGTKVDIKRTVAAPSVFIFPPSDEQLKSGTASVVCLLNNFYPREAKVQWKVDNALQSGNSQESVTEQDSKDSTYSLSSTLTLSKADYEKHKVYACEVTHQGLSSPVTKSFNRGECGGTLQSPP
modifications: MTG tag GGTLQSPP at the C-terminus is a conjugation site for DL1-M; DL1-M (NH2-GGG-b-glucuronide-exatecan) coupled by microbial transglutaminase; DAR 3.86 for the whole antibody; residues carrying the drug not stated
IC50 [M], cell viability assay (Cell Titer-Glo, 6 days), LS174T cells [6]: 8.5e-10 M | IC50 [M], cell viability assay (Cell Titer-Glo, 6 days), MKN-45 cells [6]: 1.2e-09 M | IC50 [M], cell viability assay (Cell Titer-Glo, 6 days), SK-CO-1 cells [6]: 1.1e-10 M | IC50 [M], cell viability assay (Cell Titer-Glo, 6 days), SNU-16 cells [6]: 5.1e-09 M | SPECIFICITY FACTOR (IC50 in MDA-MB-231, set to 100 nM, divided by IC50 in MKN-45) [7]: > 167 fold | SPECIFICITY FACTOR (IC50 in MDA-MB-231, set to 100 nM, divided by IC50 in SK-CO-1) [7]: > 632 fold | SPECIFICITY FACTOR (IC50 in MDA-MB-231, set to 100 nM, divided by IC50 in SNU-16) [7]: > 207 fold
